# Assays:
# [1] = test system: mixed culture of cell lines GFG, EPG, TPG and parental Ba/F3; assay: Cytokine responses in mixed and individual cell cultures (Example 2); assay type: cell-based, mouse; conditions: mixed culture of four cell lines (each 4×10^3 cells/well), similar in individual cultures, 72 hours, WST-8; listed as hEPO
# Protocol: Mixed culture of the cell lines GFG, EPG, and TPG, which express human G-CSF, EPO, and TPO chimeric receptors, respectively, and their parental cell line Ba/F3 was conducted and their response to various cytokines was examined.
# The cells were washed twice with RPMI1640 media containing 2% fetal bovine serum, and then were suspended in RPMI1640 containing 10% fetal bovine serum. The four cell lines were mixed by adjusting each of the cell lines to 4×10^4 cells/mL (16×10^4 cells/mL in total) for the mixed culture, and, for individual cultures, cells were prepared at 4×10^4 cells/mL. 100 μL each of the cells were independently seeded on a 96-well microtiter plate (flat bottom, Falcon). After adding 100 μL/well each of appropriately diluted cytokines, the cultures were cultured for 72 hours in a CO2 incubator (5% CO2 concentration). After the culture, 10 μL/well WST-8 reagent (Cell Count Reagent SF; Nacalai Tesque) was added, and pre-reaction absorbance at a measurement wavelength of 450 nm and a control wavelength of 655 nm was measured using a microplate reader (Model 3550, Bio Rad). The plate was incubated for two hours in a CO2 incubator (CO2 concentration, 5%), and post-reaction absorbance was measured as above. Data were graphed out taking the cytokine concentrations on the horizontal axis and the amount of changes in absorbance after 2-hour incubation on the vertical axis (FIGS. 18, 19, and 20).
# [2] = Titer of human EPO and G-CSF prepared from recombinant CHO cells
# [3] = target: T1, chimeric LIF receptor (human LIF receptor and human gp130 / mouse G-CSF receptor) in Ba/F3 cell line LIG (Homo sapiens, UniProt P40189+P42702); assay: Growth response of chimeric LIF receptor-expressing Ba/F3 cell line LIG (WST-8); assay type: cell-based; conditions: 72 hours culture, WST-8 absorbance
# T1 construct: from the 1st to the 833rd amino acid residues; expressed in transfected cells; host or cells: mouse Ba/F3 cells co-transfected with pCV-cLIFR and pCV-cgp130, clone LIG#47 = LIG
# T1 sequence (P42702 45-833): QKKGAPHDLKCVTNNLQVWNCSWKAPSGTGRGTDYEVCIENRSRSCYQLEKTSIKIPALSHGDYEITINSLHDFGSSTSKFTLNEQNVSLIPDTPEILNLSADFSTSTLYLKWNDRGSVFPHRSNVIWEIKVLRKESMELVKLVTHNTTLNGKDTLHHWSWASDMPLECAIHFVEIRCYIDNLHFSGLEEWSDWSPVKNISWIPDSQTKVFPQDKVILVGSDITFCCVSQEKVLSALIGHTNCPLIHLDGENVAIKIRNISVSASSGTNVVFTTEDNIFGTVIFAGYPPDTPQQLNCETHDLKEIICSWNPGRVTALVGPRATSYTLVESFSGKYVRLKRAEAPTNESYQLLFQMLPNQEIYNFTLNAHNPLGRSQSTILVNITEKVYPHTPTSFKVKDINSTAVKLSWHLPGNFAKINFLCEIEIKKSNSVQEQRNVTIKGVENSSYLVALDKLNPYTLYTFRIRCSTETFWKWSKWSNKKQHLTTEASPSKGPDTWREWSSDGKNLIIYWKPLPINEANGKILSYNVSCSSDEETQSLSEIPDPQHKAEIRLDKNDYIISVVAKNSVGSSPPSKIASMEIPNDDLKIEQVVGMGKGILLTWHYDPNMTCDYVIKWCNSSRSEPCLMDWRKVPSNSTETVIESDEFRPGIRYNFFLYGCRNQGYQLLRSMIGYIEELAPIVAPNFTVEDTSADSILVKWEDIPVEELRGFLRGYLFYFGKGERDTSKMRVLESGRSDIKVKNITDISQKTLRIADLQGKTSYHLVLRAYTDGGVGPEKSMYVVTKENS
# T1 sequence (P40189 23-619): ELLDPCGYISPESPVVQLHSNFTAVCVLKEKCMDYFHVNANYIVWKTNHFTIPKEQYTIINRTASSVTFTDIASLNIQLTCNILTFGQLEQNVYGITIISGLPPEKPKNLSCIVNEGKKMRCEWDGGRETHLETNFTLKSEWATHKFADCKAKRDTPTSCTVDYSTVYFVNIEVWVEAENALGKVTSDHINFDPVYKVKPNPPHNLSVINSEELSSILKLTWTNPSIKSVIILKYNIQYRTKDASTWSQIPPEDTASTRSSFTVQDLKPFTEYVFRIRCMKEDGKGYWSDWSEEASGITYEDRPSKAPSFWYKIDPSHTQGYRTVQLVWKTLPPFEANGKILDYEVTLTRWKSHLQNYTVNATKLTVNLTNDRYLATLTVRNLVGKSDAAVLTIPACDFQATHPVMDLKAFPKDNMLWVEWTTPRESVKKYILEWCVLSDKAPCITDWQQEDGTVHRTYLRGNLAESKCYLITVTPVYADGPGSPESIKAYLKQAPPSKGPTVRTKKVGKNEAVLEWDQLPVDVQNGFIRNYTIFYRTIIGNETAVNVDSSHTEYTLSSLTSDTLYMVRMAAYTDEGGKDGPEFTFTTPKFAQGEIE
# T1 sequence (P40223 627-837 partner limits assumed): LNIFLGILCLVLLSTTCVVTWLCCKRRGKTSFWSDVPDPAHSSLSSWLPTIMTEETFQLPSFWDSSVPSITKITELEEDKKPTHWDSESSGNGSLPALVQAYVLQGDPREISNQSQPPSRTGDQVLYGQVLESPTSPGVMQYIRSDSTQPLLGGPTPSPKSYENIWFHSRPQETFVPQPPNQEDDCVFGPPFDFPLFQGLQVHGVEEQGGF
# Description: Chimeric receptor DNAs were constructed by linking cDNA fragments encoding human LIF receptor (from the 1st to the 833rd amino acid residues; Gearing, D P. et al. […] EMBO J., 10, 2839-2848) and human gp130 (from the 1st to the 619th amino acid residues; Hibi, M. et al. (1990) Cell, 63, 1149-1157) with the transmembrane and intracellular domains (from the 602nd to the 813th amino acid residues; Fukunaga, R. et al. (1990) Cell 61, 341-350) of mouse G-CSF receptor, respectively. These constructs were inserted downstream of the HEF1α promoter of the mammalian expression vector pCV to construct chimeric receptors expression vectors, pCV-cLIFR and pCV-cgp130, respectively. pCV-cLIFR and pCV-cgp130 were linearized with Pvu I (Takara Shuzo), respectively, extracted with phenol and chloroform, and purified by ethanol precipitation. […]
# (§1) The cells were washed twice with Media A, and were suspended in Media A to give a cell density of 5×10^4 cells/mL. […] After the culture, 10 μL/well WST-8 reagent (Cell Count Reagent SF; Nacalai Tesque) was added, and pre-reaction absorbance at a measurement wavelength of 450 nm and a control wavelength of 655 nm was measured using microplate reader (Model 3550, Bio Rad). The plate was incubated for two hours in a CO2 incubator (CO2 concentration, 5%), and post-reaction absorbance was measured as above. […]
# [4] = target: T2, chimeric leptin receptor (human leptin receptor extracellular domain / mouse G-CSF receptor) in Ba/F3 cell line LPG (Homo sapiens, UniProt P48357); assay: Growth response of chimeric leptin receptor-expressing Ba/F3 cell line LPG (WST-8); assay type: cell-based; conditions: 72 hours culture, WST-8 absorbance
# T2 construct: from the 1st to the 839th amino acid residues; expressed in transfected cells; host or cells: mouse Ba/F3 cells, clone LPG#51 = LPG
# T2 sequence (P48357 22-839): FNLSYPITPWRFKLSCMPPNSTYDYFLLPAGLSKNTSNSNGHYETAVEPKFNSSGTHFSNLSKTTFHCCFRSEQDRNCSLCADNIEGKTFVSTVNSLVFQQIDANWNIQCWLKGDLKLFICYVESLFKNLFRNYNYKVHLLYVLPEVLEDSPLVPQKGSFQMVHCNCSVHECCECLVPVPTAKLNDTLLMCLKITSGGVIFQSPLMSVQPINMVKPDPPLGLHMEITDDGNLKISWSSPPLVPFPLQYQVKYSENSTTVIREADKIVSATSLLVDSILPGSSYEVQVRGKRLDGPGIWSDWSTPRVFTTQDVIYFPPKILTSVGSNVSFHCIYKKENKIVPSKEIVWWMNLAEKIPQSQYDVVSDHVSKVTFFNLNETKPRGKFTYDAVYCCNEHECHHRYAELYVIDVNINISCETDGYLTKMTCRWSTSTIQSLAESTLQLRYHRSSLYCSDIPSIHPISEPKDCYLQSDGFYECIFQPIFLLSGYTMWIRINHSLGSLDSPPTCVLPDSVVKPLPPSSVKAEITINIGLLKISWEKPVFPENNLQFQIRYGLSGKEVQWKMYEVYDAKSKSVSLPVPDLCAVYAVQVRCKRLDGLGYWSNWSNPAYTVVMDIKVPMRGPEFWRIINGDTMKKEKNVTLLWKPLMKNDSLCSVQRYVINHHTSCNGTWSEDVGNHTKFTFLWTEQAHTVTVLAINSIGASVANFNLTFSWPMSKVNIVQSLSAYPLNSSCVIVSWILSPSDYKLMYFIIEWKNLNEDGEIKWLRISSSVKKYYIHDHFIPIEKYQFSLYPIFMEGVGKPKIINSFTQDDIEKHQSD
# Description: A chimeric receptor cDNA was constructed by linking cDNA fragments encoding the extracellular domain (from the 1st to the 839th amino acid residues; Tartaglia, L A. et al. (1995) Cell, 83, 1263-1271) of human leptin receptor, and the transmembrane and intracellular domains (from the 602nd to the 813th amino acid residues; Fukunaga, R. et al. (1990) Cell 61, 341-350) of mouse G-CSF receptor. This cDNA was inserted downstream of the HEF1α promoter of the mammalian expression vector pCV to construct chimeric receptor expression vector pCV-cLepR. pCV-cLepR was linearized with Pvu I (Takara Shuzo), extracted with phenol and chloroform, and purified by ethanol precipitation. […]
# as §1
substance,measurement,setting,value
erythropoietin [human EPO],concentration where the response was observed to start,[1],2 pg/mL
same,titer,[2],"270,000 IU/mg"
human LIF: human leukemia inhibitory factor (Genzyme),concentration at which an evident growth reaction was observed,[3],≥ 0.4 ng/mL
human leptin: human leptin (Genzyme),concentration at which an evident growth reaction was observed,[4],≥ 0.2 ng/mL

# From patent US7732133B2, “Screening methods for biologically active ligands” (Chugai Seiyaku Kabushiki Kaisha, priority 2000, dated 2010)
